US20030207391A1 (published 2003)

B1: FLT-1 Domain 4 Construct 0 (residues 338-440), His-tagged (receptor)
chain: HRKQQVLETVAGKRSYRLSMKVKAFPSPEVVWLKDGLPATEKSARYLTRGYSLIIKDVTEEDAGNYTILLSIKQSNVFKNLTATLIVNVKPQIYEKAVSSFPD
notes: probably a printing error; also called sFLT-1 Dom; 4 (construct 0); His-Tagged Domain 4 (Construct 0); not shown: histidine tag from the E. coli expression vector
B2: FLT-1 Domain 4 Construct 2 (residues 330-440), His-tagged (receptor)
chain: DKAFITVKHRKQQVLETVAGKRSYRLSMKVKAFPSPEVVWLKDGLPATEKSARYLTRGYSLIIKDVTEEDAGNYTILLSIKQSNVFKNLTATLIVNVKPQIYEKAVSSFPD
notes: not shown: histidine tag from the E. coli expression vector
B3: FLT-1 Domain 4 Construct 1 (residues 330-429), His-tagged (receptor)
chain: DKAFITVKHRKQQVLETVAGKRSYRLSMKVKAFPSPEVVWLKDGLPATEKSARYLTRGYSLIIKDVTEEDAGNYTILLSIKQSNVFKNLTATLIVNVKPQ
notes: as for B2

Each binder was assayed against T1, soluble FLT-1 (sFLT-1) (Homo sapiens, UniProt P17948-2 27-687, limits assumed) (assay: BIAcore; 50 nM sFLT-1 pre-incubated overnight with 50 µg/ml construct, passed over immobilised mAb 2B2).
T1 construct: the whole FLT-1 entry is named
Procedure: Binding of Domain 4 on sFLT-1 is determined using Biomolecular Interaction Analysis (Biacore). (Fisher R. J. and Fivash, M. (1994) Curr. Opin. Biotech. 5, 389-395).
A monoclonal antibody (2B2) specific to Domains 1 to 3 of sFLT-1, but not Domain 4, was immobilized on the sensor chip at a concentration of 30 μg/ml in 10 mM NaAc, pH 5. 50 μg/ml of the four Domain 4 constructs in 20 mM Tris-HCl, pH 7.4 were individually pre-incubated overnight at 4° C. with 50 nM sFLT-1 in HEPES buffer (O.O1M Hepes,pH 7.4, 0.15M NaCl, 3 mM EDTA, 0.005% polysorbate 20 (v/v)). Thereafter the pre-incubated suspensions were passed across the immobilized monoclonal antibody and binding monitored by mass sensitive detection, measured in response units (RU). […] A further control was also run whereby the four Domain 4 constructs, which have not been pre-incubated with sFLT-1, were passed over the immobilized monoclonal antibody. After each run the sensor chip was regenerated in 10 mM Glycine pH 1.75 buffer ready for the next experiment.

T1 sequence (P17948 other isoform, or with tags, fused parts or gaps limits assumed): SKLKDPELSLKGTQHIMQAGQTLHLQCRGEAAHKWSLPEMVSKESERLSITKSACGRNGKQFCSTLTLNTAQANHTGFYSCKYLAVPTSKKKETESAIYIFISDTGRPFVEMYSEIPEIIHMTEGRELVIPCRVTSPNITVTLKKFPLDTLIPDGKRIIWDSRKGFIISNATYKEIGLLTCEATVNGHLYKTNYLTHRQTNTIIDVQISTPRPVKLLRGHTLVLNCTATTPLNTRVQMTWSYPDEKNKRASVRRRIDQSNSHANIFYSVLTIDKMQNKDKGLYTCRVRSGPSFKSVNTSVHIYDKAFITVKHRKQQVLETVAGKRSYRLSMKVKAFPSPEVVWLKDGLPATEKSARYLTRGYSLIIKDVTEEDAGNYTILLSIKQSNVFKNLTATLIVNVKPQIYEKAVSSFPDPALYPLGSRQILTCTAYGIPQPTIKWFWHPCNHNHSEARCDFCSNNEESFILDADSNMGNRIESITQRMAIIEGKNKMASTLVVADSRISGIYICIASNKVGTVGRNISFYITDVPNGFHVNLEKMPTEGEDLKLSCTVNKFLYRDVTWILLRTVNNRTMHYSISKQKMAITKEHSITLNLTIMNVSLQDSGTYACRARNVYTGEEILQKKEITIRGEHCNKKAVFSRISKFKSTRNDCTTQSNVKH

% inhibition of sFLT-1	Binder
5.85%	B1
73.3%	B2
64.7%	B3
